Numbering of substitutions follows the chain as printed.
T1: human CLDN9 (UniProt O95484 1-217)
T1 chain: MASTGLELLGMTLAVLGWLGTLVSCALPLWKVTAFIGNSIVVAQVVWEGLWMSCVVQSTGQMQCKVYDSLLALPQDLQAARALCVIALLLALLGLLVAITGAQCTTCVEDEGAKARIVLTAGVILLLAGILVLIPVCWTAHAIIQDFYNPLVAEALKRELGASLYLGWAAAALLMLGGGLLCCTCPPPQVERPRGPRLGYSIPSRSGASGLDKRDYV

T2: human CLDN6 (UniProt P56747 1-220)
T2 chain: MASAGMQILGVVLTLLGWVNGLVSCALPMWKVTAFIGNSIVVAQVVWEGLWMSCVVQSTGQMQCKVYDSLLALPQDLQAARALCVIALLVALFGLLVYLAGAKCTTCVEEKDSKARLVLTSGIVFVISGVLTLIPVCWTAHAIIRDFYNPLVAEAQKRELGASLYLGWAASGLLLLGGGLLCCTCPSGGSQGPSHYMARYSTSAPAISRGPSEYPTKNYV

B1: XENP35070 H2_L1.27 (antibody, V domains shown)
VH: EVQLVQSGAEVKKPGESLRISCKTSGYTFTEYTMHWVRQMPGKSLEWMGGIDPNNGNTHYNQKFQGHVTISVDKSISTAYLQWSSLKASDTAMYYCARIYYFGRLYFDFWGAGTLVTVSS
VL: DIQMTQSPSSLSASVGDRVTITCQASEDIYNRLAWYQQKPGKVPKLLISGATSLESGVPSRFSGSGSGKDYTFTISSLQPEDIATYYCQQYWSSPLTFGGGTKVEIKR
B2: XENP35087 H1.3_L1 (antibody, V domains shown)
VH: QVQLVQSGAEVKKPGASVKVSCKTSGYTFTEYTMHWVRQAPGQSLEWMGGIDSNNGNTHYNQKFQGRVTITVDKSASTAYMELSSLRSEDTAVYYCARIYYFGRLYFDFWGAGTLVTVSS
VL: B1 VL with S56T
B3: XENP35100 H2.7_L1 (antibody, V domains shown)
VH: B1 VH with N55Q
VL: B1 VL with S56T
B4: XENP35091 H1.7_L1 (antibody, V domains shown)
VH: B2 VH with S53P, N55Q
VL: B1 VL with S56T
B5: XENP35066 H2_L1.23 (antibody, V domains shown)
VH: B1 VH
VL: B1 VL with L54R, S56T
B6: XENP35097 H2.4_L1 (antibody, V domains shown)
VH: B1 VH with P53G
VL: B1 VL with S56T
B7: XENP35092 H1.8_L1 (antibody, V domains shown)
VH: B2 VH with S53P, G56D
VL: B1 VL with S56T
B8: XENP35065 H2_L1.22 (antibody, V domains shown)
VH: B1 VH
VL: B1 VL with S53Q, S56T
B9: XENP35064 H2_L1.21 (antibody, V domains shown)
VH: B1 VH
VL: B1 VL with S53N, S56T
B10: XENP35047 H2_L1.4 (antibody, V domains shown)
VH: B1 VH
VL: B1 VL with I29V, S56T
B11: XENP35101 having H2.8_L1 (antibody, V domains shown)
VH: B1 VH with G56D
VL: B1 VL with S56T
B12: XENP35093 (having C6-30 H1.9_L1) (antibody, V domains shown)
VH: B2 VH with S53P, G56A
VL: B1 VL with S56T
B13: XENP35059 H2_L1.16 (antibody, V domains shown)
VH: B1 VH
VL: B1 VL with G50A, S56T
B14: XENP35062 H2_L1.19 (antibody, V domains shown)
VH: B1 VH
VL: B1 VL with T52S, S56T
B15: XENP35096 H2.3_L1 (antibody, V domains shown)
VH: B1 VH with P53S
VL: B1 VL with S56T
B16: XENP35061 H2_L1.18 (antibody, V domains shown)
VH: B1 VH
VL: B1 VL with A51T, S56T
B17: XENP35088 H1.4_L1 (antibody, V domains shown)
VH: B2 VH with S53A
VL: B1 VL with S56T
B18: XENP35050 H2_L1.7 (antibody, V domains shown)
VH: B1 VH
VL: B1 VL with N31S, S56T
B19: XENP35102 having H2.9_L1 (antibody, V domains shown)
VH: B1 VH with G56A
VL: B1 VL with S56T
B20: XENP35044 H2_L1.1 (antibody, V domains shown)
VH: B1 VH
VL: B1 VL with E27Q, S56T
B21: XENP35929 H2_L1.107 (antibody, V domains shown)
VH: B1 VH
VL: B1 VL with S56T, S94A
B22: XENP35979 H2_L1.187 (antibody, V domains shown)
VH: B1 VH
VL: B1 VL with Y30V, S56T
B23: XENP35890 H2.11_L1 (antibody, V domains shown)
VH: B1 VH with T28S
VL: B1 VL with S56T
B24: XENP36041 H2.91_L1 (antibody, V domains shown)
VH: B1 VH with G56F
VL: B1 VL with S56T
B25: XENP36065 H2.118_L1 (antibody, V domains shown)
VH: B1 VH with F64K
VL: B1 VL with S56T
B26: XENP35883 H1.19_L1 (antibody, V domains shown)
VH: B2 VH with S53P, V93T
VL: B1 VL with S56T
B27: XENP36021 H2.71_L1 (antibody, V domains shown)
VH: B1 VH with P53L
VL: B1 VL with S56T
B28: XENP36022 H2.72_L1 (antibody, V domains shown)
VH: B1 VH with P53A
VL: B1 VL with S56T
B29: XENP36025 H2.75_L1 (antibody, V domains shown)
VH: B1 VH with N54H
VL: B1 VL with S56T
B30: XENP35936 H2_L1.114 (antibody, V domains shown)
VH: B1 VH
VL: B1 VL with S56T, S94G
B31: XENP36066 H2.119_L1 (antibody, V domains shown)
VH: B1 VH with Q65E
VL: B1 VL with S56T

Target: T1, human CLDN9
Test: HEK293E cell binding; avid

| EC50 [µg/mL] | Binder |
| --- | --- |
| 29.7 | B1 |
| 31.8 | B2 |
| 63.5 | B3 |
| 31.4 | B4 |
| 31.8 | B5 |
| 72.9 | B6 |
| 25 | B7 |
| 69.1 | B8 |
| 14.1 | B9 |
| 17.6 | B10 |
| 1.06 | B11 |
| 53.1 | B12 |
| 32.7 | B13 |
| 86.8 | B14 |
| 110 | B15 |
| 56.3 | B16 |
| 29.2 | B17 |
| 99.3 | B18 |
| 1.43 | B19 |

Target: T2, human CLDN6
Test: HEK293E cell binding; avid

| EC50 [µg/mL] | Binder |
| --- | --- |
| 1.18 | B1 |
| 1.2 | B2 |
| 1.14 | B3 |
| 1.43 | B4 |
| 1.59 | B5 |
| 1.1 | B6 |
| 4.34 | B20 |
| 1.16 | B7 |
| 1.48 | B8 |
| 0.979 | B9 |
| 0.795 | B10 |
| 24.8 | B11 |
| 0.978 | B12 |
| 1.28 | B13 |
| 1.23 | B14 |
| 1.24 | B15 |
| 1.25 | B16 |
| 1.29 | B17 |
| 2.22 | B18 |
| 3.53 | B19 |

Target: T1, human CLDN9
Test: HEK293E cell binding; avid
Remark: another data set of the same source

| EC50 [µg/mL] | Binder |
| --- | --- |
| 99.1 | B21 |
| 29.2 | B22 |
| 34.1 | B23 |
| 32.5 | B24 |
| 492 | B25 |
| 16.8 | B26 |
| 49.3 | B27 |
| 47.2 | B28 |
| 61.1 | B29 |
| 57.4 | B30 |
| 18 | B31 |

Target: T2, human CLDN6
Test: HEK293E cell binding; avid
Remark: another data set of the same source

| EC50 [µg/mL] | Binder |
| --- | --- |
| 0.792 | B21 |
| 0.323 | B22 |
| 0.408 | B23 |
| 0.449 | B24 |
| 0.783 | B25 |
| 0.617 | B26 |
| 0.902 | B27 |
| 0.514 | B28 |
| 1.34 | B29 |
| 0.829 | B30 |
| 0.567 | B31 |

From patent publication US20240400675A1 (published 2024)
